Experimental data reported in patent US8648039B2, “Use of alpha-lactalbumin for regulations of glycemia” (Compagnie Laitiere Europeene, priority 2006, dated 2014).

How the values were obtained:
[1] = system: IRS1 (insulin receptor substrate 1) protein; assay: Activation of the insulin signaling pathway (IRS1 immunoprecipitation, Western blotting) at 6 weeks; format: in vivo, male rats of the Wistar Hannover strain; settings: muscle; 6 weeks of diet
Description: Four groups of 8 male rats of the Wistar Hannover strain were subjected for 6 weeks to the same sucrose-containing diets as those used in experiments 2 and 3 (P14 containing sucrose, C1, C2 and alphalac). An additional group of 8 rats, this being a non-sucrose control group, fed with a diet P14 containing 14 energy % of total milk proteins without sucrose, was added. This group constitutes the “normal” or “healthy” positive control in the evaluation of the insulin signaling pathway modifications related to the high-sucrose diet.
At 6 weeks, the anesthetized rats receive a dose of 0.750 mU.kg^−1 of insulin, directly injected into the vena cava. This injection makes it possible to light up the insulin signaling pathway and to evaluate the differences in activation between the various groups. 5 min after the injection, the muscle and the liver are removed, ground in a lysis buffer and directly immunoprecipitated with an antibody which recognizes the IRS1 (insulin receptor substrate 1) protein. The immunoprecipitated samples are then loaded onto a gel and then blotted onto a membrane (Western blotting technique). The membranes are successively hybridized with an antiphosphotyrosine antibody (tyrosine phosphorylation of the IRS protein is the first step in the insulin signaling pathway) and then an anti-total IRS1 antibody (FIG. 10).

[2] = system: male rats of the Wistar Hannover strain; assay: Postprandial glycemia with glutathione synthesis inhibited by buthionine sulfoximine; format: in vivo; settings: buthionine sulfoximine injected one hour before the meal; acute
Description: In order to confirm the role of glutathione in the regulation of glycemia and the advantage of α-lactalbumin as a cysteine source from the viewpoint of synthesis of this compound, we used a glutathione-depleted rat model, by inhibiting the synthesis of this compound with buthionine sulfoximine treatment. In these animals, glucose tolerance and insulin sensitivity were measured, and also various parameters related to the oxidative stress state. The replenishing of glutathione stores and the change in the regulation of glycemia were measured in response to diets with various levels of enrichment in α-lactalbumin and cysteine supplementation.
The methodology of example 2, limited to the acute part of the study, was repeated. Four groups of 10 male rats of the Wistar Hannover strain were operated on, after their reception, in order to put in place a venous catheter. This catheter is introduced via the left jugular, descended to the level of the vena cava, and its proximal part interconnects at the cranial level, where it is secured in place so as to allow blood samples to be taken, in the desired amount, from a conscious animal.
One week later, the rats were divided up into 4 groups subjected to the sucrose-rich normal protein meals C0, C1, C2 and alphalac. An injection of buthionine sulfoximine, a […], was given beforehand (one hour before the meal). […]

B1: α-lactalbumin (protein, UniProt P00711 20-142, looked up)
Alpha-lactalbumin: EQLTKCEVFRELKDLKGYGGVSLPEWVCTTFHTSGYDTQAIVQNNDSTEYGLFQINNKIWCKDDQNPHSSNICNISCDKFLDDDLTDDIMCVKKILDKVGINYWLAHKALCSEKLDQWLCEKL
notes: milk serum protein; bovine form 14.2 kD, 123 amino acids
expression of the IRS protein [1]: attenuated | influence of inhibition of glutathione synthesis on the effect on postprandial glycemia [2]: does not modify
